Experimental data taken from patent publication US5834244.

Legend:
[1] = biological target: rabbit TF-FVIIa in the PT assay (rabbit thromboplastin with rabbit plasma) (rabbit)
[2] = biological target: tissue factor-Factor VIIa complex (human Factor VIIa with recombinant human tissue factor 1-243) (human) (UniProt P08709); assay: chromogenic enzyme inhibition assay under equilibrium conditions; apparent Ki*
[3] = biological target: tissue factor-Factor VIIa complex (human Factor VIIa with recombinant human tissue factor 1-243) (human) (UniProt P08709); assay: chromogenic enzyme inhibition assay, FVIIa 10 nM, TF1-243 50 nM; apparent Ki* by fit to the tight-binding equation
[4] = biological target: human Factor XIa (human) (UniProt P03951)
[5] = biological target: human plasma kallikrein (human) (UniProt P03952)
[6] = biological target: tissue factor-Factor VIIa complex (human Factor VIIa with recombinant human tissue factor 1-243) (human) (UniProt P08709); assay: apparent Ki* for TF-FVIIa; method not told at this place

In the case of “APPI, Alzheimer's amyloid β-protein precursor inhibitor”, the fold increase of clotting time over baseline, PT assay in rabbit plasma (fold increase over baseline at 40 µM) [1] is reported as 1.4, the Ki [2] is reported as 301 nM and the Ki [3] is reported as 300 nM. The fold prolongation of clotting time, APTT assay in normal human plasma (fold prolongation at 40 µM inhibitor) [4] was 3.6 and the fold prolongation of clotting time, APTT assay in normal human plasma (fold prolongation at 40 µM inhibitor) [5] was 3.6.

Work on first Kunitz domain of TFPI yielded a Ki [6] of 600 nM.
